± gives the half width of the 95% confidence interval.
What was measured:
[1] = folding stability dG unfold from trypsin proteolysis; higher = more stable
Method in brief: (§1)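 Unfolding free energy was derived, per protease or combined, against a sequence-predicted unfolded-state K50 and a shared folded-state K50, starting from K50 inferred by Bayesian fitting of sequencing counts. Digestion with trypsin and chymotrypsin was carried out on designed mini-proteins under 80 residues without cysteine in a PA-tagged cDNA display construct. Only designs with AlphaFold2 dimer inter-PAE above 15 were kept.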

[2] = folding stability dG unfold (combined trypsin and chymotrypsin); higher = more stable
Method in brief: as §1

[3] = folding stability dG unfold from chymotrypsin proteolysis; higher = more stable
Method in brief: as §1

Row | Sequence | folding stability dG unfold [1] [kcal/mol] | folding stability dG unfold [2] [kcal/mol] | folding stability dG unfold [3] [kcal/mol]
1 | SAGGSAPEDNYVVLIFIDISIEWKPKYDEDNGKNRIEFEWKLEIDIPTIVLPPDDPEAKDLLEDLLSAGGSA [r15_470_TrROS] | 2.29 ± 0.067 | 2.94 ± 0.12 | 3.35 ± 0.14
2 | SAGGSAGGSAGVEINIFMPSWEQAKHRAKSIARELRERGLPPNAEIKIKIHPIDPEDMGPSAGGSAGGSAGG [r17_180_TrROS] | -0.0827 ± 0.13 | -0.226 ± 0.25 | -0.576 ± 0.15
3 | SAGEVKPGETVTLTIVLSKEELEKLEELAKALPGVEVTEVKVEKLPDGLVRVTITVTKEALEKLKELLESAG [r5_554_TrROS_Hall] | 3.28 ± 0.21 | 3.5 ± 0.19 | 3.71 ± 0.22
4 | SMVELKITVKTPEELKKLEEAFKELGVEEVTIERKEDGTVTITVTFKESEEELEERVREALEELGFEVEPSA [r9_1003_TrROS_Hall] | 3.33 ± 0.18 | 3.18 ± 0.22 | 2.82 ± 0.23
5 | SATGKLAELLEEAFPDRPIASAEILGVEPLPDGRPALRFLLTFEDGSKLVVTVTSADHPEVLEAARENQSAG [r14_143_TrMRF] | 3.04 ± 0.064 | 2.96 ± 0.041 | 2.913 ± 0.014
6 | SAGGSAGGSAMTTTSTSTYPDSITTTTTTTVDGTYIITTTTFYPATGTTTTTTTTLPPSLTSAGGSAGGSAG [r3_316_JUSTAS] | 2.91 ± 0.093 | 2.41 ± 0.048 | 1.987 ± 0.011
7 | SAGGEIPPNAKIDELEISPGSGYIRIKVEFYDPDGKPIWKMTITIPIKPVPRPSPEDQKEQNKKNKKSAGGS [r16_697_TrROS] | 1.36 ± 0.18 | 2.39 ± 0.67 | 2.68 ± 0.12
8 | MNVTINITVLSPDSSGYTMKATVTFPETPVTTSKEYKTSDPVSAVEEIIKELVDEENLSNATVTTYPSSRLS [r1_399_JUSTAS] | -0.562 ± 0.22 | 0.0431 ± 0.19 | 0.377 ± 0.35
9 | SAGGSAGGSAGGMKLDVTIVGDGKVTTLPADSLEDVEETLKKLGLTLKSVDPATGTVTVASAGGSAGGSAGG [r7_726_JUSTAS] | 0.718 ± 0.051 | 0.305 ± 0.19 | -0.0786 ± 0.54
10 | SAGGSAGGSDPAKKPVYLLATVEVEIGEVVDPNTGEPSHEHRVTVRFLITIDPDGNISISSLTSAGGSAGGS [r12_438_TrMRF] | 2.9 ± 0.2 | 3.15 ± 0.21 | 3.25 ± 0.18
11 | SAGGSAGGSAGGKKTIVIEINGKKYTITRIEFDKDTKKITIEIEFNGKKLKIEIELPKNLSAGGSAGGSAGG [r7_477_TrROS_Hall] | 2.17 ± 0.078 | 3.11 ± 0.27 | 3.31 ± 0.16
12 | SAGGSAGGSAGGSSLASDPTVPPDEPRTVTVLEPEPGGRLRVVTYEETPAGRRPVSALLSAGGSAGGSAGGS [r10_288_JUSTAS] | -0.782 ± 0.95 | 0.336 ± 0.21 | 1.09 ± 0.26
13 | SAGGKTVVIEAESLEEALAAIEALPPDVKKVVIFNKETGVLVEVTVDPKTGEIKEIKVYKIDPEKGKLSAGG [r13_945_TrROS_Hall] | 1.22 ± 0.09 | 2.54 ± 0.12 | 2.861 ± 0.026
14 | SAGGSAMVSLEEAKEATLREVKAALGFSPDATPEELRARGVPVRVPITVRDEKGNVIAELELELPGSAGGSA [r15_391_JUSTAS] | -0.118 ± 0.04 | 0.37 ± 0.039 | 0.571 ± 0.046
15 | SAGGSAGGSAGMETTVLEEVPPEELAKGQTRLEKLPDGTIIERTVAPEGEVVETKTIPPKSAGGSAGGSAGG [r17_2_JUSTAS] | 1.94 ± 0.21 | 1.09 ± 0.48 | 0.421 ± 0.12
16 | SAGGSAGGSAGRRLVLEFDDESLAVPAAEFLERVLGLELVSIERVPDGERERVLVVLDFPSAGGSAGGSAGG [r11_232_TrMRF] | 1.78 ± 0.036 | 2.21 ± 0.09 | 2.45 ± 0.05
17 | SAGGSAPIRIIKDPEKGTIMIRVPGPITVNQELKLRDENGKPWEIKNVEVERVGGRLIITMKVEPASAGGSA [r15_838_TrROS] | 1.19 ± 0.052 | 1.29 ± 0.11 | 1.24 ± 0.19
18 | SAELLDALKKNGWTIRIPIKHPGNGETWPMPFRIEPDGDGWKISIPPPNGKPHPFKIEDIEIMPPEDLKSAG [r14_427_TrROS] | 0.723 ± 0.11 | 0.561 ± 0.2 | 0.406 ± 0.42
19 | SAGGSAGGSAGGSDDFVLRYRRRVRRKPKEVRLLPNGELVTGWEEEVSTFPVLTHPDDDSAGGSAGGSAGGS [r10_524_TrMRF] | 0.239 ± 0.11 | 0.448 ± 0.044 | 0.5 ± 0.065
20 | SAGGMKTLTITLTVRNPATQETLTLTITVPEGMSEEELQALLKQLQELVEALLQLPPPPPPPPPELESAGGS [r16_191_TrROS_Hall] | 3.16 ± 0.12 | 4.01 ± 0.11 | 4.25 ± 0.066
21 | SASMTYTVTVTVSVKNPDGTPIGTIPITRTMNLDEAKVIVEKEIKKTVDELFPGKPANVTVDTTVTPLPSAG [r14_570_JUSTAS] | 0.482 ± 0.13 | 0.899 ± 0.27 | 1.6 ± 0.42

Row | Sequence | folding stability dG unfold [1] [kcal/mol] | folding stability dG unfold [2] [kcal/mol] | folding stability dG unfold [3] [kcal/mol]
22 | SAGGAEEIRKELGISPEEKVTVKLVVPEGGRPREFTVEMKPDELEKVLEELGVPPEKLEITEVEVIEESAGG [r13_681_JUSTAS] | -1.39 ± 0.38 | -0.456 ± 0.21 | -0.121 ± 0.21
23 | SAGGSAGGSASKTIFIPAAVVAANPEKAVEFAEKVREEFEKKGLSVKTEVLPDGGIGIHVGSAGGSAGGSAG [r3_75_TrMRF] | 2.07 ± 0.071 | 1.88 ± 0.087 | 1.61 ± 0.054
24 | SAGGSASPAVSSEEEVEALVEELRKKGYEVLSVERTEIPGEDVTDYTIPIRDPSNGKLSTLTLTAGSAGGSA [r15_123_JUSTAS] | 0.508 ± 0.037 | 0.585 ± 0.12 | 0.538 ± 0.15
25 | SAGGSAGGSAMVTIAFPDGTVVEIPASLSEEEVEAEAERLAKERAAGVRPVDVTVESIEPPGSAGGSAGGSA [r18_213_JUSTAS] | 0.356 ± 0.035 | 1.07 ± 0.069 | 1.43 ± 0.062
26 | SAGGSAGGSAGGLVLTSTSFTSSNTMVVTTTTLTTNADGSLSTTSTTTTTPVPPPKPGLPSAGGSAGGSAGG [r11_728_JUSTAS] | 0.161 ± 0.042 | 0.443 ± 0.077 | 0.509 ± 0.092
27 | SAGGMLDLSDVEVLNTVPIGGGNYLVLLKVPKLGKVVVVPASDLKKLKENVPNVKISFTPVAPSESGSAGGS [r16_61_TrMRF] | 0.601 ± 0.025 | 1.09 ± 0.059 | 1.3 ± 0.072
28 | SAGGSEILKKLFPNVKKIEIEVEEVEVKYSEEEKKANPNKKVKVEVKVKVKIKIKIELEFDKNGKLSAGGSA [r2_404_TrROS_Hall] | 3.64 ± 0.19 | 3.09 ± 0.61 | 1.92 ± 0.19
29 | SAGGSAGGSAGGGMKVEKEESPDSTVTETITDPSSENTTIVTKEVLPDGSLKVTETKELPSAGGSAGGSAGG [r7_828_JUSTAS] | -0.224 ± 0.087 | 0.717 ± 0.14 | 0.987 ± 0.06
30 | SAGGSKIIITYDKEKNVITIKVEKNGKLLEITIEVKSKEDLEEALKKAEELAKELEKKGYKVEIIPSAGGSA [r2_118_TrROS_Hall] | 1.95 ± 0.12 | 2.15 ± 0.2 | 2.31 ± 0.07
31 | SAGGSAKSIKAEELAKEIADLMQERNPNWRVEIEPQPGPGPMITVKIYHRDPNNGDQQPINTFTIRSAGGSA [r15_682_TrROS] | 0.502 ± 0.099 | 0.442 ± 0.15 | 0.188 ± 0.15
32 | SAGGSAPPKRRERIIQIPIKMKPGQTADEMVDNIADWIMDLLPPDMRIEIEVEYHPENGWIMVKIESAGGSA [r15_739_TrROS] | 1.21 ± 0.089 | 1.63 ± 0.3 | 2.09 ± 0.084
33 | SAGGSAGGSAGGSVAYVAPDGDKLIVRVVRPDGSVEEKEFDSLEDLKTLPDDVPVAFLVSAGGSAGGSAGGS [r4_447_TrMRF] | 0.86 ± 0.034 | 0.516 ± 0.11 | -0.0498 ± 0.15
34 | SAGGKKKKVKVKVVKVEKLENGTYKVVLEVEVDGKKITLVKEFKTKEDLEKKPKEIEITVEELKKLLKSAGG [r13_540_TrROS_Hall] | 2.46 ± 0.13 | 3.87 ± 0.37 | 4.32 ± 0.22
35 | SAGGSKVTLEVNEDGTVTLTVTRPDGKKVTLTITKNEDGTYTIRDEETGKTITVPAGMSIEELLKASAGGSA [r2_338_TrROS_Hall] | 3.69 ± 0.12 | 5.09 ± 0.1 | 5.17 ± 0.14
36 | SAGGSAGGSMKPLGQGDFEDPDGWKIKISMYPDGWFRIEIYDKNGKPKETIPVPANDLPDILKSAGGSAGGS [r12_664_TrROS] | 0.664 ± 0.027 | 1.21 ± 0.064 | 1.43 ± 0.053
37 | SAGGSAGGSAGPPIMVMVHKHDKEDGKPKIDESIPIDIPPDQQDKLKEEANERGYHVHPFSAGGSAGGSAGG [r17_18_TrROS] | 0.207 ± 0.054 | 0.158 ± 0.091 | 0.0379 ± 0.11
38 | SAGGKWKPIGKFEFTLPDGVKVTVTVEENPPLELKITAEVEIYVPPPKPPVPPLGPEEVKKWLEENKSAGGS [r16_6_TrMRF] | 1.87 ± 0.12 | 1.8 ± 0.2 | 1.86 ± 0.05
39 | SAGSMEALRALAEELAAEIAAAARAAGREVEVDITEVRPGEVRIRVTTTPPGGERTVEDIEIALPEERLSAG [r5_994_JUSTAS] | 0.934 ± 0.018 | 1.48 ± 0.034 | 1.82 ± 0.026
40 | SAGGSAGGSDDSPEDAQKQQAKPEIKIKLHIRFPDGKEYDLDEPFEFPINGQPMRISSIDIVYSAGGSAGGS [r12_43_TrROS] | 0.419 ± 0.037 | 0.823 ± 0.11 | 1.18 ± 0.21
41 | SAGGKKIKITVKELKKKLEEEGYEIEEIEIYNKKTGKKIKTIKEGDVIELPENVKNVVIKVKIKKKKSAGGS [r8_243_TrROS_Hall] | 2.16 ± 0.19 | 2.57 ± 0.34 | 2.86 ± 0.17
42 | SAGGSAGGLPEGDIYRIRVTLPNGNTFTITFPVKSVEQAKDFAKSFLESLGLPDVKVDIEPVPVSAGGSAGG [r6_844_TrROS] | 3.53 ± 0.065 | 4 ± 0.074 | 4.2 ± 0.044
